Source: patent US20240270846A1 (published 2024)

B1: GLS3000 F55A one-arm antibody (H chain CE115HA000) (antibody, human IgG1, kappa, L234A L235A, N297A, name in Kabat numbering)
heavy: QVQLVESGGGVVQPGRSLRLSCAASGFTFSNAWMHWVRQAPGKGLEWVAQIKAKSNNYATYYAESVKGRFTISRDDSKNSLYLQMNSLKTEDTAVYYCRYVHYGAYYGVDAWGQGTTVTVSSASTKGPSVFPLAPSSKSTSGGTAALGCLVKDYFPEPVTVSWNSGALTSGVHTFPAVLQSSGLYSLSSVVTVPSSSLGTQTYICNVNHKPSNTKVDKKVEPKSCDKTHTCPPCPAPEAAGGPSVFLFPPKPKDTLMISRTPEVTCVVVDVSHEDPEVKFNWYVDGVEVHNAKTKPREEQYASTYRVVSVLTVLHQDWLNGKEYKCKVSNKALPAPIEKTISKAKGQPREPQVYTLPPSRCELTKNQVSLSCAVKGFYPSDIAVEWESNGQPENNYKTTPPVLDSDGSFFLVSKLTVDKSRWQQGNVFSCSVMHEALHNHYTQKSLSLSPDYKDDDDK
chain: EPKSSDKTHTCPPCPAPELLGGPSVFLFPPKPKDTLMISRTPEVTCVVVDVSHEDPEVKFNWYVDGVEVHNAKTKPREEQYNSTYRVVSVLTVLHQDWLNGKEYKCKVSNKALPAPIEKTISKAKGQPREPQVCTLPPSRDELTKNQVSLWCLVKGFYPSDIAVEWESNGQPENNYKTTPPVLDSDGSFFLYSKLTVDKSRWQQGNVFSCSVMHEALHNRYTQKSLSLSP
light: DIVMTQSPLSLPVTPGEPASISCRSSQSLVHSNRNTYLHWYQQKPGQAPRLLIYKVSNRASGVPDRFSGSGSGTDFTLKISRVEAEDVGVYYCGQGTQVPYTFGQGTKLEIKRTVAAPSVFIFPPSDEQLKSGTASVVCLLNNFYPREAKVQWKVDNALQSGNSQESVTEQDSKDSTYSLSSTLTLSKADYEKHKVYACEVTHQGLSSPVTKSFNRGEC
notes: one-arm antibody
B2: GLS3000 F55D one-arm antibody (H chain CE115HA000) (antibody, human IgG1, kappa, L234A L235A, N297A, name in Kabat numbering)
heavy: QVQLVESGGGVVQPGRSLRLSCAASGFTFSNAWMHWVRQAPGKGLEWVAQIKAKSNNYATYYAESVKGRFTISRDDSKNSLYLQMNSLKTEDTAVYYCRYVHYGAYYGVDAWGQGTTVTVSSASTKGPSVFPLAPSSKSTSGGTAALGCLVKDYFPEPVTVSWNSGALTSGVHTFPAVLQSSGLYSLSSVVTVPSSSLGTQTYICNVNHKPSNTKVDKKVEPKSCDKTHTCPPCPAPEAAGGPSVFLFPPKPKDTLMISRTPEVTCVVVDVSHEDPEVKFNWYVDGVEVHNAKTKPREEQYASTYRVVSVLTVLHQDWLNGKEYKCKVSNKALPAPIEKTISKAKGQPREPQVYTLPPSRCELTKNQVSLSCAVKGFYPSDIAVEWESNGQPENNYKTTPPVLDSDGSFFLVSKLTVDKSRWQQGNVFSCSVMHEALHNHYTQKSLSLSPDYKDDDDK
chain: EPKSSDKTHTCPPCPAPELLGGPSVFLFPPKPKDTLMISRTPEVTCVVVDVSHEDPEVKFNWYVDGVEVHNAKTKPREEQYNSTYRVVSVLTVLHQDWLNGKEYKCKVSNKALPAPIEKTISKAKGQPREPQVCTLPPSRDELTKNQVSLWCLVKGFYPSDIAVEWESNGQPENNYKTTPPVLDSDGSFFLYSKLTVDKSRWQQGNVFSCSVMHEALHNRYTQKSLSLSP
light: DIVMTQSPLSLPVTPGEPASISCRSSQSLVHSNRNTYLHWYQQKPGQAPRLLIYKVSNRDSGVPDRFSGSGSGTDFTLKISRVEAEDVGVYYCGQGTQVPYTFGQGTKLEIKRTVAAPSVFIFPPSDEQLKSGTASVVCLLNNFYPREAKVQWKVDNALQSGNSQESVTEQDSKDSTYSLSSTLTLSKADYEKHKVYACEVTHQGLSSPVTKSFNRGEC
notes: one-arm antibody
B3: GLS3000 H27dD one-arm antibody (H chain CE115HA000) (antibody, human IgG1, kappa, L234A L235A, N297A, name in Kabat numbering)
heavy: QVQLVESGGGVVQPGRSLRLSCAASGFTFSNAWMHWVRQAPGKGLEWVAQIKAKSNNYATYYAESVKGRFTISRDDSKNSLYLQMNSLKTEDTAVYYCRYVHYGAYYGVDAWGQGTTVTVSSASTKGPSVFPLAPSSKSTSGGTAALGCLVKDYFPEPVTVSWNSGALTSGVHTFPAVLQSSGLYSLSSVVTVPSSSLGTQTYICNVNHKPSNTKVDKKVEPKSCDKTHTCPPCPAPEAAGGPSVFLFPPKPKDTLMISRTPEVTCVVVDVSHEDPEVKFNWYVDGVEVHNAKTKPREEQYASTYRVVSVLTVLHQDWLNGKEYKCKVSNKALPAPIEKTISKAKGQPREPQVYTLPPSRCELTKNQVSLSCAVKGFYPSDIAVEWESNGQPENNYKTTPPVLDSDGSFFLVSKLTVDKSRWQQGNVFSCSVMHEALHNHYTQKSLSLSPDYKDDDDK
chain: EPKSSDKTHTCPPCPAPELLGGPSVFLFPPKPKDTLMISRTPEVTCVVVDVSHEDPEVKFNWYVDGVEVHNAKTKPREEQYNSTYRVVSVLTVLHQDWLNGKEYKCKVSNKALPAPIEKTISKAKGQPREPQVCTLPPSRDELTKNQVSLWCLVKGFYPSDIAVEWESNGQPENNYKTTPPVLDSDGSFFLYSKLTVDKSRWQQGNVFSCSVMHEALHNRYTQKSLSLSP
light: DIVMTQSPLSLPVTPGEPASISCRSSQSLVDSNRNTYLHWYQQKPGQAPRLLIYKVSNRFSGVPDRFSGSGSGTDFTLKISRVEAEDVGVYYCGQGTQVPYTFGQGTKLEIKRTVAAPSVFIFPPSDEQLKSGTASVVCLLNNFYPREAKVQWKVDNALQSGNSQESVTEQDSKDSTYSLSSTLTLSKADYEKHKVYACEVTHQGLSSPVTKSFNRGEC
notes: one-arm antibody
B4: GLS3000 H27dE one-arm antibody (H chain CE115HA000) (antibody, human IgG1, kappa, L234A L235A, N297A, name in Kabat numbering)
heavy: QVQLVESGGGVVQPGRSLRLSCAASGFTFSNAWMHWVRQAPGKGLEWVAQIKAKSNNYATYYAESVKGRFTISRDDSKNSLYLQMNSLKTEDTAVYYCRYVHYGAYYGVDAWGQGTTVTVSSASTKGPSVFPLAPSSKSTSGGTAALGCLVKDYFPEPVTVSWNSGALTSGVHTFPAVLQSSGLYSLSSVVTVPSSSLGTQTYICNVNHKPSNTKVDKKVEPKSCDKTHTCPPCPAPEAAGGPSVFLFPPKPKDTLMISRTPEVTCVVVDVSHEDPEVKFNWYVDGVEVHNAKTKPREEQYASTYRVVSVLTVLHQDWLNGKEYKCKVSNKALPAPIEKTISKAKGQPREPQVYTLPPSRCELTKNQVSLSCAVKGFYPSDIAVEWESNGQPENNYKTTPPVLDSDGSFFLVSKLTVDKSRWQQGNVFSCSVMHEALHNHYTQKSLSLSPDYKDDDDK
chain: EPKSSDKTHTCPPCPAPELLGGPSVFLFPPKPKDTLMISRTPEVTCVVVDVSHEDPEVKFNWYVDGVEVHNAKTKPREEQYNSTYRVVSVLTVLHQDWLNGKEYKCKVSNKALPAPIEKTISKAKGQPREPQVCTLPPSRDELTKNQVSLWCLVKGFYPSDIAVEWESNGQPENNYKTTPPVLDSDGSFFLYSKLTVDKSRWQQGNVFSCSVMHEALHNRYTQKSLSLSP
light: DIVMTQSPLSLPVTPGEPASISCRSSQSLVESNRNTYLHWYQQKPGQAPRLLIYKVSNRFSGVPDRFSGSGSGTDFTLKISRVEAEDVGVYYCGQGTQVPYTFGQGTKLEIKRTVAAPSVFIFPPSDEQLKSGTASVVCLLNNFYPREAKVQWKVDNALQSGNSQESVTEQDSKDSTYSLSSTLTLSKADYEKHKVYACEVTHQGLSSPVTKSFNRGEC
notes: one-arm antibody

The binders below were run against T1, CD3 epsilon homodimer protein (UniProt P07766 23-126) (assay: SPR, CD3e homodimer on chip;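 note: surface plasmon resonance at 25 degrees C, antibodies flowed as analyte over CD3 epsilon homodimer amine-coupled to a CM4 chip, running buffer HBS-EP+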).
T1 construct: also called CD3 (CD3 epsilon)
T1 sequence (P07766 23-126): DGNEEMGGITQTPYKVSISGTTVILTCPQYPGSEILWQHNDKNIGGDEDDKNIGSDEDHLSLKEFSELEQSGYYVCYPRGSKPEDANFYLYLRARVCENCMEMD

Compared with B1, B2 is lower in “ratio of amounts bound (altered form / unaltered GLS3000 antibody)” value: 1.13 for the first, 0.65 for the second.

First: B3
Second: B4
The “ratio of amounts bound (altered form / unaltered GLS3000 antibody)” value of the first is lower: 0.22 for the first, 0.23 for the second.
